Reference: patent US20090028788A1 (WASHINGTON UNIVERSITY IN ST LOUIS, published 2009)

Legend:
[1] = target: T1, purified human αvβ3 integrin protein (human, UniProt P06756 31-1048; P05106 27-788); assay: competition with 125I-echistatin on purified human αvβ3 integrin, filter plate
T1 construct: Bought heterodimer; also called ABI; purified αvβ3 integrin
Method: (§1) The binding affinities were measured based on the competitive binding between purified αᵥβ₃ integrin (ABI) and peptide ligands.
(§2) Receptor binding assays were performed by using purified human αᵥβ₃ integrin protein from Chemicon International, Inc. (Temecula, Calif.). Assays were carried out using the Millipore Duropore membrane 96-well plates and the Millipore MultiScreen system (Bedford, Mass.). […] The concentration range of ligand was between 0.01 μM and 100 μM. The mixtures were incubated for 2 h at room temperature, the ABI was then filtered by centrifugation at 1500 g and washed three times with 0.20 mL of ice-cold binding buffer. The filters containing radioactivity bound ABI were removed using a punch apparatus and counted using a Packard Cobra II Auto-gamma counter (Meriden, Conn.). […] The 50% inhibitory concentrations (IC₅₀) were calculated by nonlinear regression analysis by use of the GraphPad Prism 4 computer fitting program (GraphPad Software, Inc., San Diego, Calif.).

[2] = target: T1, purified human αvβ3 integrin protein; assay: as above; remark: listed apart in the source
Method: as §1, §2

[3] = target: T1, purified human αvβ3 integrin protein; assay: competition with 125I-echistatin on purified αvβ3 integrin, filtration plate (Example 3)
Method: The concentration range of ligand was between 0.01 and 100 μM. The mixture was incubated for 2 h by shaking at room temperature. Each well was washed three times with 0.25 mL of ice-cold binding buffer and dried. The filters were removed using a punch apparatus and counted in a gamma counter.

T1 sequence (P06756 31-1048, form in doubt, chain 1 of 2): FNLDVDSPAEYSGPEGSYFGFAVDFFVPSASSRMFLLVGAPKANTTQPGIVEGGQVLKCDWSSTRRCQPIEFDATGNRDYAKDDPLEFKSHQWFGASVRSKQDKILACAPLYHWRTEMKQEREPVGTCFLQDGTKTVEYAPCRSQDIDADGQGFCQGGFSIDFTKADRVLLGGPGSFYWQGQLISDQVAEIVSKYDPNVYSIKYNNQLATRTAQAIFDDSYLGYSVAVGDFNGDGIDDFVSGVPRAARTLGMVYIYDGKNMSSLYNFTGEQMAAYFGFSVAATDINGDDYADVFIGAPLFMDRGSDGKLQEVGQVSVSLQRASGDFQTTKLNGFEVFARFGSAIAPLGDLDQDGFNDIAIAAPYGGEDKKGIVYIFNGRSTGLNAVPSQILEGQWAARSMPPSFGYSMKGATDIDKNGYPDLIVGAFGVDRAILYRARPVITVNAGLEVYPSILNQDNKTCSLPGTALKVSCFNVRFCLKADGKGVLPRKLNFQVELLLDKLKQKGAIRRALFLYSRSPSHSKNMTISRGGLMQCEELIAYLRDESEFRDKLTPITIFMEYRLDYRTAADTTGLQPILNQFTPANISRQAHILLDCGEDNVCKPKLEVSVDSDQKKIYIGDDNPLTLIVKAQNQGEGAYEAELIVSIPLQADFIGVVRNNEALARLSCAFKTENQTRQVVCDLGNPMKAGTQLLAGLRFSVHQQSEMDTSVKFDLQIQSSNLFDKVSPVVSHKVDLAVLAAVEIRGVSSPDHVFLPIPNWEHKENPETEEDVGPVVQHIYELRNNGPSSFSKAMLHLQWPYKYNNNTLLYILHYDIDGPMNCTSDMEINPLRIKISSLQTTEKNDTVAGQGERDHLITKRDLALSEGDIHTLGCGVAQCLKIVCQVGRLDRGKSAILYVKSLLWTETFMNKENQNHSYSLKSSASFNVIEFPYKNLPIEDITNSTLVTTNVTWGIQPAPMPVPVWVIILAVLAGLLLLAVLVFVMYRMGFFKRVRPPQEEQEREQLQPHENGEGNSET
T1 sequence (P05106 27-788, form in doubt, chain 2 of 2): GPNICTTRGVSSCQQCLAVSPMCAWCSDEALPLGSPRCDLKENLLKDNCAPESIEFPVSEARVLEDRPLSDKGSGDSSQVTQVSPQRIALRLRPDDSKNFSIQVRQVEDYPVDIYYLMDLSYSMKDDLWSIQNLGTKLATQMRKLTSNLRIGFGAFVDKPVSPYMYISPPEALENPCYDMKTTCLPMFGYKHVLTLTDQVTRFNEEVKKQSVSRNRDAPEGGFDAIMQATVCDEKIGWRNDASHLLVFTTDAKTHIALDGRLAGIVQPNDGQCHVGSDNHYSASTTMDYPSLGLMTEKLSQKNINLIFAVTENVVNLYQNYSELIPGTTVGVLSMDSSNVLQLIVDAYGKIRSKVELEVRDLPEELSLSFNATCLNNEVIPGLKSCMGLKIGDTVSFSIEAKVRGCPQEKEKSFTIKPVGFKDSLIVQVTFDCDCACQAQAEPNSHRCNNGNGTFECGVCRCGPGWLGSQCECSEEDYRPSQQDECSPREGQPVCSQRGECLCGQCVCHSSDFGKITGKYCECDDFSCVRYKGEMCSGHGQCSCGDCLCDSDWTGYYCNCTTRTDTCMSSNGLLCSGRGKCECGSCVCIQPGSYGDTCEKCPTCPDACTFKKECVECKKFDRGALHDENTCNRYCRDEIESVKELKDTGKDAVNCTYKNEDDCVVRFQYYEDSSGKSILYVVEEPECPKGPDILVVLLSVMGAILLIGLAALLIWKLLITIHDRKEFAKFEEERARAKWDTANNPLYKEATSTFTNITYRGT

| IC50 [1] [nM] | IC50 [2] [µM] | IC50 [3] [µM] | Binder |
| --- | --- | --- | --- |
| 1090 |  |  | CRGDGRC (HELM PEPTIDE1{[CC1(C)C(/C=C/C=C/C=C/C=C2/N(CCC(=O)[*:2])c3ccc4ccccc4c3C2(C)C)=[N+](CCC(=O)O)c2ccc3ccccc3c21].C.R.G.D.G.R.C.[am]}$PEPTIDE1,PEPTIDE1,2:R3-8:R3$$$V2.0; SMILES CC1(C)C(/C=C/C=C/C=C/C=C2/N(CCC(=O)N[C@H]3CSSC[C@@H](C(N)=O)NC(=O)[C@H](CCCNC(=N)N)NC(=O)CNC(=O)[C@H](CC(=O)O)NC(=O)CNC(=O)[C@H](CCCNC(=N)N)NC3=O)c3ccc4ccccc4c3C2(C)C)=[N+](CCC(=O)O)c2ccc3ccccc3c21) [Cypate-cyclo(CRGDGRC)-NH2] |
|  | 0.328 | 10.7 | GRGDSPK (HELM PEPTIDE1{[CC1(C)C(/C=C/C=C/C=C/C=C2/N(CCC(=O)[*:2])c3ccc4ccccc4c3C2(C)C)=[N+](CCC(=O)O)c2ccc3ccccc3c21].G.R.G.D.S.P.K}$$$$V2.0; SMILES CC1(C)C(/C=C/C=C/C=C/C=C2/N(CCC(=O)NCC(=O)N[C@@H](CCCNC(=N)N)C(=O)NCC(=O)N[C@@H](CC(=O)O)C(=O)N[C@@H](CO)C(=O)N3CCC[C@H]3C(=O)N[C@@H](CCCCN)C(=O)O)c3ccc4ccccc4c3C2(C)C)=[N+](CCC(=O)O)c2ccc3ccccc3c21, also called Cypate-GRGDSPK; Cypate-GRGDSPK-OH) [Cypate-Gly-Arg-Gly-Asp-Ser-Pro-Lys-OH] |
|  | 7.02 | > 100 | GRDSPK (HELM PEPTIDE1{[CC1(C)C(/C=C/C=C/C=C/C=C2/N(CCC(=O)[*:2])c3ccc4ccccc4c3C2(C)C)=[N+](CCC(=O)O)c2ccc3ccccc3c21].G.R.D.S.P.K}$$$$V2.0; SMILES CC1(C)C(/C=C/C=C/C=C/C=C2/N(CCC(=O)NCC(=O)N[C@@H](CCCNC(=N)N)C(=O)N[C@@H](CC(=O)O)C(=O)N[C@@H](CO)C(=O)N3CCC[C@H]3C(=O)N[C@@H](CCCCN)C(=O)O)c3ccc4ccccc4c3C2(C)C)=[N+](CCC(=O)O)c2ccc3ccccc3c21, also called Cypate-GRDSPK; Cypate-GRDSPK-OH) [Cypate-Gly-Arg-Asp-Ser-Pro-Lys-OH] |
| 1890 |  |  | CRGDDC (HELM PEPTIDE1{[CC1(C)C(/C=C/C=C/C=C/C=C2/N(CCC(=O)[*:2])c3ccc4ccccc4c3C2(C)C)=[N+](CCC(=O)O)c2ccc3ccccc3c21].C.R.G.D.D.C.[am]}$PEPTIDE1,PEPTIDE1,2:R3-7:R3$$$V2.0; SMILES CC1(C)C(/C=C/C=C/C=C/C=C2/N(CCC(=O)N[C@H]3CSSC[C@@H](C(N)=O)NC(=O)[C@H](CC(=O)O)NC(=O)[C@H](CC(=O)O)NC(=O)CNC(=O)[C@H](CCCNC(=N)N)NC3=O)c3ccc4ccccc4c3C2(C)C)=[N+](CCC(=O)O)c2ccc3ccccc3c21) [Cypate-cyclo(CRGDDC)-NH2] |
| 9640 |  |  | CRGDLC (HELM PEPTIDE1{[CC1(C)C(/C=C/C=C/C=C/C=C2/N(CCC(=O)[*:2])c3ccc4ccccc4c3C2(C)C)=[N+](CCC(=O)O)c2ccc3ccccc3c21].C.R.G.D.L.C.[am]}$PEPTIDE1,PEPTIDE1,2:R3-7:R3$$$V2.0; SMILES CC(C)C[C@@H]1NC(=O)[C@H](CC(=O)O)NC(=O)CNC(=O)[C@H](CCCNC(=N)N)NC(=O)[C@@H](NC(=O)CCN2/C(=C/C=C/C=C/C=C/C3=[N+](CCC(=O)O)c4ccc5ccccc5c4C3(C)C)C(C)(C)c3c2ccc2ccccc32)CSSC[C@@H](C(N)=O)NC1=O) [Cypate-cyclo(CRGDLC)-NH2] |
|  |  | 1.93 | RGDXVK (HELM PEPTIDE1{R.G.D.[dF].V.K}$PEPTIDE1,PEPTIDE1,1:R1-6:R2$$$V2.0; SMILES CC(C)[C@@H]1NC(=O)[C@@H](Cc2ccccc2)NC(=O)[C@H](CC(=O)O)NC(=O)CNC(=O)[C@H](CCCNC(=N)N)NC(=O)[C@H](CCCCN)NC1=O) [cyclo[RGDfVK]] |
